Key:
[1] = test system: Staphylococcus aureus, NRS-382; test: plate lysis assay (spectrum of lytic activity); type: cell-based; design: key: strong lytic zone = ++; weak lytic zone = +; no lytic zone = −; details: 6 μg; S. aureus NRS-382, MRSA
Description: (§1) The PlyGRCS spectrum of lytic activity was performed (Schmelcher M et al. (2012) Chimeric phage lysins act synergistically with lysostaphin to kill mastitis-causing Staphylococcus aureus in murine mammary glands. Appl Environ Microbiol 78(7):2297-305) with minor modifications. Bacterial cells were diluted in sterile PBS to an OD600=1, and 100 μl was spread on each plate. 10 μl spots (600 μg/ml) of PlyGRCS or CHAPGRCS were applied. Plates were incubated overnight at 37° C. Strength of lytic zones was defined qualitatively.

[2] = test system: Streptococcus pneumoniae, ATCC BAA-334; test: plate lysis assay (spectrum of lytic activity); type: cell-based; design: key: strong lytic zone = ++; weak lytic zone = +; no lytic zone = −; details: 6 μg
Description: as §1

[3] = test system: Staphylococcus aureus, NRS-385; test: plate lysis assay (spectrum of lytic activity); type: cell-based; design: key: strong lytic zone = ++; weak lytic zone = +; no lytic zone = −; details: 6 μg; S. aureus NRS-385, MRSA
Description: as §1

Bacillus pumulis, BJ0055 = test: plate lysis assay (spectrum of lytic activity); type: cell-based; design: key: strong lytic zone = ++; weak lytic zone = +; no lytic zone = −; details: 6 μg
Description: as §1

[4] = test system: Streptococcus equi, ATCC 9528; test: plate lysis assay (spectrum of lytic activity); type: cell-based; design: key: strong lytic zone = ++; weak lytic zone = +; no lytic zone = −; details: 6 μg
Description: as §1

[5] = test system: Streptococcus suis, 730082; test: plate lysis assay (spectrum of lytic activity); type: cell-based; design: key: strong lytic zone = ++; weak lytic zone = +; no lytic zone = −; details: 6 μg
Description: as §1

[6] = test system: Streptococcus uberis, ATCC 700407; test: plate lysis assay (spectrum of lytic activity); type: cell-based; design: key: strong lytic zone = ++; weak lytic zone = +; no lytic zone = −; details: 6 μg
Description: as §1

[7] = test system: Enterococcus facealis, EF24; test: plate lysis assay (spectrum of lytic activity); type: cell-based; design: key: strong lytic zone = ++; weak lytic zone = +; no lytic zone = −; details: 6 μg
Description: as §1

[8] = test system: Streptococcus pyogenes, D471; test: plate lysis assay (spectrum of lytic activity); type: cell-based; design: key: strong lytic zone = ++; weak lytic zone = +; no lytic zone = −; details: 6 μg
Description: as §1

[9] = circular dichroism melting experiments; type: physicochemical; details: 0.1 mg/ml, 20 mM sodium phosphate buffer pH 7, 20-95° C. at 1° C./min
Description: CD experiments for wild-type (WT) and active-site mutants were performed on a Chirascan CD spectrometer (Applied Photophysics) equipped with a thermoelectrically controlled cell holder. CD spectra were obtained in the far-UV range (190-260 nm) in a 1 mm path length quartz cuvette at 1 nm steps with 5 second signal averaging per data point. Spectra were collected in triplicate, followed by averaging, baseline subtraction, smoothing and conversion to mean residue ellipticity (MRE) by the Pro-Data software (Applied Photophysics). Secondary structure prediction was performed using the Provencher and Glockner method (Provencher S W & Glockner J (1981) Estimation of globular protein secondary structure from circular dichroism. Biochemistry 20(1):33-7) provided by DICHROWEB (Whitmore L & Wallace B A (2004) DICHROWEB, an online server for protein secondary structure analyses from circular dichroism spectroscopic data. Nucleic Acids Res 32:W668-73).
Melting experiments were performed by heating PlyGRCS at a 0.1 mg/ml concentration in 20 mM sodium phosphate buffer pH 7 from 20° C. to 95° C. using a 1° C./min heating rate. MRE was monitored at 218 nm in a 1 mm path length quartz cuvette at 0.5° C. steps with 5 second signal averaging per data point. The melting data was smoothed, normalized and fit with a Boltzmann sigmoidal curve. The first derivative of the melting curve was then taken to determine the temperature (Tm) at which the folded and unfolded protein species in solution were at equilibrium (Fallas J A & Hartgerink J D (2012) Computational design of self-assembling register-specific collagen heterotrimers. Nat Commun 3:1087).

[10] = test system: S. aureus NRS-14 peptidoglycan; test: dinitrosalicylic acid (DNSA) assay for reducing sugars; type: biochemical, Staphylococcus aureus; details: 50 μg/ml, one hour, 37° C.
[11] = test system: Staphylococcus aureus, NRS-384; test: plate lysis assay (spectrum of lytic activity); type: cell-based; design: key to strength of lytic zone: strong lytic zone = ++; weak lytic zone = +; no lytic zone = −; details: 6 μg; S. aureus NRS-384, MRSA
Description: as §1

[12] = test system: Staphylococcus epidermidis, NRS-101; test: plate lysis assay (spectrum of lytic activity); type: cell-based; design: key to strength of lytic zone: strong lytic zone = ++; weak lytic zone = +; no lytic zone = −; details: 6 μg
Description: as §1

[13] = test system: Staphylococcus aureus, NRS-14; test: plate lysis assay (spectrum of lytic activity); type: cell-based; design: key to strength of lytic zone: strong lytic zone = ++; weak lytic zone = +; no lytic zone = −; details: 6 μg
Description: as §1

[14] = test system: Staphylococcus aureus, NRS-71; test: plate lysis assay (spectrum of lytic activity); type: cell-based; design: key to strength of lytic zone: strong lytic zone = ++; weak lytic zone = +; no lytic zone = −; details: 6 μg
Description: as §1

[15] = test system: S. aureus NRS-14 (VISA strain); test: bactericidal analysis (CFU counts, MBC); type: cell-based, Staphylococcus aureus; details: 1 hour, stationary phase
Description: Sterile-filtered PlyGRCS was 2-fold serially diluted in PBS supplemented with 1 mM CaCl2 and an equal volume of either various concentrations of enzyme or buffer only was added to 10^5 S. aureus NRS-14 in a microtiter plate. Samples were incubated at 37° C. for 1 hour, then serially diluted, plated on TSB agar, and incubated overnight at 37° C. to obtain CFU counts. The MBC (minimum bactericidal concentration) was determined as the minimum concentration of enzyme that killed ≧99.9% of bacteria.
It has been noted that the minimal inhibitory concentration (MIC) assay may not be the most appropriate assay to measure endolysin efficacy due to the speed at which the enzyme acts (Kusuma C M et al. (2005) Comparison of four methods for determining lysostaphin susceptibility of various strains of Staphylococcus aureus. Antimicrobial agents and chemotherapy 49(8):3256-63). Therefore, we employed the minimum bactericidal concentration (MBC) assay, which is the lowest concentration of enzyme that kills ≧99.9% (i.e. 3 logs) of the test inoculum (Jones R et al. (1985) Susceptibility tests: microdilution and macrodilution broth procedures. In: Balows A, Hausler J, Shadomy H (eds) Manual of Clinical Microbiology. American Society for Microbiology, Washington, D.C., pp 972-7).

B1: PlyGRCS: endolysin of bacteriophage GRCS (ORF15), amino acids 1-250, SEQ ID NO: 5, C-terminal 6× His tag (protein)
chain: MKSQQQAKEWIYKHEGTGVDFDGAYGFQCMDLAVAYVYYITDGKVRMWGNAKDAINNDFKGLATVYENTPSFKPQLGDVAVYTNSQYGHIQCVISGNLDYYTCLEQNWLGGGFDGWEKATIRTHYYDGVTHFIRPKFSASNSNVLETSKVNTFGNWKQNQYGTYYRNENATFTCGFLPIFARVGSPKLSEPNGYWFQPNGYTPYDEVCLSDGLVWIGYNWQGTRYYLPVRQWNGKTGNSYSIGLPWGVFS
modifications: C-terminal 6xHis tag; Synthetically generated polypeptide (PlyGRCS phage (S. aureus))
strength of lytic zone [1]: +
strength of lytic zone [2]: −
strength of lytic zone [3]: +
strength of lytic zone (Bacillus pumulis, BJ0055): −
strength of lytic zone [4]: −
strength of lytic zone [5]: −
strength of lytic zone [6]: −
strength of lytic zone [7]: −
strength of lytic zone [8]: −
Tm [9]: 43.5 °C
glycosidase activity (reducing sugar release) [10]: did not show any glycosidase activity
strength of lytic zone [11]: +
lytic activity on plates (in words) ([12]; S. epidermidis NRS-101): greatest strength
strength of lytic zone ([12]; S. epidermidis NRS-101, MRSE): ++
lytic activity on plates (in words) ([13]; S. aureus NRS-14): greatest strength
strength of lytic zone ([13]; S. aureus NRS-14, VISA): ++
lytic activity on plates (in words) ([14]; S. aureus NRS-71): greatest strength
strength of lytic zone ([14]; S. aureus NRS-71, MRSA): ++
reduction of bacterial counts ([15]; 6.25 μg/ml): 2 logs
log decrease ([15]; 12.5 μg/ml): 2.5 log
log killing ([15]; 25 μg/ml): 3 log
